Reference: patent US20240424125A1 (Zymeworks, published 2024)

Legend:
FOLR2 on HEK293-6e cells = target: T1, FOLR2 on HEK293-6e cells (human, UniProt P14207 17-230); assay: flow cytometry on transfected HEK293-6e cells
T1 construct: whole, on cells; also called human folate receptor beta (FOLR2)
Method: (§1) FRα, FOLR2 and FOLR4 binding was assessed through flow cytometry using HEK293 transfected cells. FOLR3 binding was assessed through ELISA as FOLR3 is a soluble protein. Control anti-FOLR2 (mouse anti-human FOLR2; Nordic BioSite AB, Taby, Sweden; Cat. No. AFC-4544-2), anti-FOLR3 (mouse anti-human FOLR3; LS Bio, Seattle, WA; Cat. No. LS-C125621) and anti-FOLR4 (mouse anti-His DyLight™ 650; Novus Biologicals, Littleton, CO; Cat. No. NBP2-31055C) antibodies were included in these experiments.
(§2) FRα, FOLR2 and FOLR4 binding: Briefly, HEK293-6e cells were transfected for ˜24 hours to transiently express human FRα (Cat. No. 13420), FOLR2 (Cat. No. 13481) and FOLR4 (Cat. No. 13483) (all from GenScript Biotech, Piscataway, NJ), 1 ug DNA per 1 million cells. Following transfection, 50,000 cells were seeded in V-bottom 96-well plates and incubated with 50 nM primary antibody for 45 min under standard culturing conditions. […] Following incubation and washing, fluorescence was detected by flow cytometry on a BD LSRFortessa™ Cell Analyzer (BD Biosciences, Franklin Lake, NJ) with 1,000 minimum events collected per well.

FOLR4 on HEK293-6e cells = target: T2, FOLR4 on HEK293-6e cells (human, UniProt A6ND01 20-228); assay: flow cytometry on transfected HEK293-6e cells
T2 construct: whole, on cells; also called human folate receptor delta (FOLR4)
T2 sequence (A6ND01 20-228): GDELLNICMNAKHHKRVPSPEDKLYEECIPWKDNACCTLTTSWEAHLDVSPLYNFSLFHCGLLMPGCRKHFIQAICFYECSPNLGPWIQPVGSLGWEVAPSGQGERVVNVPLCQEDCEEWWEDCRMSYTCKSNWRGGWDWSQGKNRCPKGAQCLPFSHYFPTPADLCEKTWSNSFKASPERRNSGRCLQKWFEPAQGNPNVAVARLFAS
Method: as §1, §2

human FRα on cells [1] = target: T3, human FRα on cells (human, UniProt P15328 25-234); assay: apparent Kd, flow cytometry on JEG-3 cells (endogenous FRα), 24 h at 4°C
T3 construct: Transiently expressed on HEK293-6e, CHO-S or HEK293 microarray cells, or endogenous on JEG-3, HEC-1-A, IGROV-1, OVCAR-3, H2110, KB-HeLa and T-47D cells; also called human folate receptor alpha; FOLR1
T3 sequence (P15328 25-234 limits assumed): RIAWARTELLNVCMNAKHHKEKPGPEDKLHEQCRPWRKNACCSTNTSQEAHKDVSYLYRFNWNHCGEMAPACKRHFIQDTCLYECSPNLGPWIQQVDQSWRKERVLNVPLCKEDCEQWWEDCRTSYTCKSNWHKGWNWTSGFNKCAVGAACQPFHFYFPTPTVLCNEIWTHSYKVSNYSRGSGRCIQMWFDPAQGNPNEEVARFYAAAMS
Method: Briefly, cells were seeded at 50,000 cells/well in V-bottom 96-well plates and treated with antibody for 24 hours at 4° C. to prevent internalization. […] Following incubation and washing, fluorescence was detected by flow cytometry on a BD LSRFortessa™ Cell Analyzer (BD Biosciences, Franklin Lake, NJ) with 1,000 minimum events collected per well. AF647/APC-A GeoMean (fluorescence signal geometric mean, proportional to anti-Human AF647 binding) in live cell population was plotted using GraphPad Prism Version 9 (GraphPad Software, San Diego, CA).

human FRα on cells [2] = target: T3, human FRα on cells; assay: apparent Kd, flow cytometry, CHO-S cells transiently expressing human FRα, 24 h at 4°C
Method: (§3) Briefly, CHO-S cells were transfected for −24 hours to transiently express human or cynomolgus monkey FRα, 1 ug DNA per 1 million cells. Following transfection, cells were seeded at 50,000 cells/well in V-bottom 96-well plates and treated with antibody for 24 hours at 4° C. to prevent internalization. […] Following incubation and washing, fluorescence was detected by flow cytometry on a BD LSRFortessa™ Cell Analyzer (BD Biosciences, Franklin Lake, NJ).

[3] = target: T4, cynomolgus monkey FRα on cells (cynomolgus monkey, UniProt P15328 29-234 (human entry)); assay: apparent Kd, flow cytometry, CHO-S cells transiently expressing cynomolgus monkey FRα, 24 h at 4°C
T4 construct: Transiently expressed on CHO-S cells; also called Cyno FRα; cynomolgus FRα
T4 sequence (P15328 other isoform, or with tags, fused parts or gaps limits assumed): as the sequence (P15328 25-234 limits assumed) above, with I2T, A3T, W4R, R37K, A146P, H171Y counted along it
Method: as §3

human FRα on cells [4] = target: T3, human FRα on cells; assay: apparent Kd, flow cytometry, CHO-S cells transiently expressing human FRα (same experiment as Table 15.1, more digits)
Method: as §3

[5] = target: T5, recombinant His-tagged human FRα (ACROBiosystems) (human, UniProt P15328 25-233); assay: BLI (Octet RED96): antibody on anti-human IgG Fc capture biosensor, His-tagged hFRα as analyte, 1:1 global fit, mean of n=2
T5 construct: also called hFRα; hFRα antigen; not shown: His tag
T5 sequence (P15328 25-233 limits assumed): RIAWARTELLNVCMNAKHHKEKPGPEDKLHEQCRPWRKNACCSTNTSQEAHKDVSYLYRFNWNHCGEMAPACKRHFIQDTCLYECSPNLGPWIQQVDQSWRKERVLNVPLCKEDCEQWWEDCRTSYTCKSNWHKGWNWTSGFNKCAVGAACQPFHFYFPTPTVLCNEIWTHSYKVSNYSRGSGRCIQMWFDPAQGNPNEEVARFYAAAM
How it was run: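 Run at 30° C with 1000 rpm shaking in kinetics buffer (PBS pH 7.4, 0.1% BSA, 0.02% Tween 20, 0.05% sodium azide) plus 0.06% Tween 20, sometimes 1% BSA. Reference-subtracted curves globally fitted to a 1:1 model, giving kon, koff and KD.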

[6] = target: T4, cynomolgus monkey FRα on cells; assay: apparent Kd, flow cytometry, CHO-S cells transiently expressing cynomolgus monkey FRα (same experiment as Table 15.1, more digits)
Method: as §3

[7] = target: T5, recombinant His-tagged human FRα …; assay: SPR (Biacore T200): hFRα amine-coupled to CM5 chip at medium-low antigen density, bivalent FSA injected, 1:1 Langmuir fit, mean of n=2
Method: CM5 Series S sensor chip, Biacore™ amine coupling kit (NHS, EDC and 1 M ethanolamine), and 10 mM sodium acetate buffers were purchased from GE Healthcare Life Science (Mississauga, ON, Canada). PBS running buffer with 0.05% Tween20 (PBST) was purchased from Teknova Inc. (Hollister, CA). Recombinant human FRα was purchased from ACRObiosystems (Newark, DE).
Screening of the variants for binding to hFRα antigen was conducted in two steps: capture of hFRα onto surface, followed by injection of three to five concentrations of variant. The hFRα surface was prepared on a CM5 Series S sensor chip by standard amine coupling methods as described by the manufacturer (GE Healthcare Life Science, Mississauga, ON, Canada). The immobilization of the hFRα was performed using Biacore™ T200 immobilization wizard with an amine coupling method aiming for resonance units (RUs) ranging from 5 to 200 RUs. Using multi-cycle kinetics, three to five concentrations of a two-fold dilution series of samples starting at 300 nM with a blank buffer control were injected at 50 uL/min for 180s with a 600s dissociation phase, resulting in a set of sensorgrams with a buffer blank reference. The hFRα surface was regenerated to prepare for the next injection cycle by one pulse of 10 mM glycine/HCl pH 1.5 for 30s at 30 uL/min. Blank-subtracted sensorgrams were analyzed using Biacore™ T200 Evaluation Software v3.0. The blank-subtracted sensorgrams were then fit to the 1:1 Langmuir binding model.

T1 sequence (P14207 17-230): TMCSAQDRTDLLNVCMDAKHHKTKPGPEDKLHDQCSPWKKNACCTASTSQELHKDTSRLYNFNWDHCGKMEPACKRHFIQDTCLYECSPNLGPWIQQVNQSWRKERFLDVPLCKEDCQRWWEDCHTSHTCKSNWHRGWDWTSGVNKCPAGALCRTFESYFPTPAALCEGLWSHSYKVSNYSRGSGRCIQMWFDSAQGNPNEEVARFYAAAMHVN

binding result (FOLR2 on HEK293-6e cells): no binding (tested: 50 nM)
binding result (FOLR4 on HEK293-6e cells): no binding (tested: 50 nM)
Kd (human FRα on cells [1]): 0.32 nM
Kd (human FRα on cells [2]): 0.08 nM
Kd [3]: 0.12 nM
Kd (human FRα on cells [4]): 0.0839 nM
Kd [5]: 27 nM
Kd [6]: 0.122 nM
Kd [7]: 2.29 nM
B1: v23924 (antibody, human IgG1, kappa, V domains shown)
VH: QSVKESEGGLFKPTDTLTLTCTVSGFSLSSYGVSWVRQAPGNGLEWIGAVNSGGSAYYANWAKSRSTITRNTNLFTVTLKMTSLAVADTATYFCARSGSGYPMDYLAIWGPGTLVTVSS
VL: AYDMTQTPASVEVAVGGTVTIKCQASQSIGDWLAWYQQKPGQPPRLLIYEASTLASGVPSRFSGSGSGTQFTLTISGVECADAATYYCQQGYGRSNVDNIFGGGTEVVVKR
notes: Rabbit-human chimeric full-size antibody, human IgG1/kappa, HomoFc; also called variant v23924; parental chimeric anti-FRα antibody
